Measured values reported in article PMC10040874, “Burst kinetics and CNNM binding are evolutionarily conserved properties of phosphatases of regenerating liver” (The Journal of Biological Chemistry, 2023).

B1: Drosophila melanogaster PRL (wild-type) (enzyme, D. melanogaster, UniProt O61722 1-176, looked up)
chain: MSITMRQKDLRPAPALIEYKGMKFLITDRPSDITINHYIMELKKNNVNTVVRVCEPSYNTDELETQGITVKDLAFEDGTFPPQQVVDEWFEVLKDKYQQNPEACVAVHCVAGLGRAPVLVALALIELGLKYEAAVEMIRDKRRGAINAKQLSFLEKYKPKARLKHKNGHKNSCSVQ
notes: the single PRL of D. melanogaster, cloned without the C-terminal prenylation site; also called Drosophila PRL; fly PRL; source: E. coli BL21(DE3), purified (TALON Co2+ resin, Superdex-75)
B3: Drosophila melanogaster CNNM CBS-pair domain, GST-tagged (domain or fragment, D. melanogaster)
chain: VNIISGALELRKKTVADVMTHINDAFMLSLDALLDFETVSEIMNSGYSRIPVYDGDRKNIVTLLYIKDLAFVDTDDNTPLKTLCEFYQNPVHFVFEDYTLDIMFNQFKEGTIGHIAFVHRVNNEGDGDPFYETVGLVTLEDVIEELIQAEIVDE
notes: CBS-pair domain of the Drosophila CNNM protein encoded by the uex (unextended) gene; also called Drosophila CNNM; dCNNM; source: E. coli BL21(DE3), purified (glutathione-Sepharose, Superdex-75); not shown: GST, N-terminal, kept

Experiments:
Experiment in all cases: ITC; VP-ITC, 20 °C, 20 mM Hepes pH 7.5, 100 mM NaCl, 5 mM TCEP; GST-CBS-pairs titrated with PRL; single site-binding model
Conditions in all cases: both partners purified
[1] = biological target: B3
[2] = biological target: T1, human PRL2 (human, UniProt Q12974 1-163)
T1 construct: human phosphatase of regenerating liver 2 (PRL2); also called hPRL2; source: E. coli BL21(DE3), purified (TALON Co2+ resin, Superdex-75)
T1 sequence: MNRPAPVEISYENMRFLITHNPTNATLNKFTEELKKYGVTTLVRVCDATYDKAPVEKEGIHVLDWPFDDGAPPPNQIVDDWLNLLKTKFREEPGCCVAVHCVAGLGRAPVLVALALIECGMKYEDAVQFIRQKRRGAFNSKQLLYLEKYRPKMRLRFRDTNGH

[3] = biological target: B1
[4] = biological target: T2, Caenorhabditis elegans PRL (C. elegans)
T2 construct: the single PRL of C. elegans, cloned without the C-terminal prenylation site; also called C. elegans PRL; source: E. coli BL21(DE3), purified (TALON Co2+ resin, Superdex-75)

Binder: B1
- fold weaker affinity than the human complex [1]: 20 fold

B2: human CNNM3 CBS-pair domain (domain or fragment)
chain: LRCRTVEDVLTPLEDCFMLDASTVLDFGVLASIMQSGHTRIPVYEEERSNIVDMLYLKDLAFVDPEDCTPLSTITRFYNHPLHFVFNDTKLDAVLEEFKRGKSHLAIVQKVNNEGEGDPFYEVLGLVTLEDVIEEIIRSEILDE
notes: CBS-pair domain of human CNNM3; the ITC methods call all the titrated domains GST-CBS-pairs, the human one included; also called hCNNM3; GST-CBS-pair; source: E. coli BL21(DE3), purified; not shown: GST, N-terminal, kept
- binding result [2]: binds

Binder: B3
- Kd [3]: 350 nM

B4: CBS-pair domain of a C. elegans CNNM protein (the one of two expressed that bound with 1 μM affinity) (domain or fragment)
chain: LKIAVGAMEIADKVVKDVMTKIEDVFMLPDTTVLNAKTVMEIVKMGYTRIPVYQYGDKNNVTDMLFVKDLALLDPDDNFTVKTVCGYHKHPVKFVMNDTPLPNLLEAFKKGEGHLAMVKRLINTDDKHDPSYVLVGVVTLEDIVEEILQAEINDE
modifications: Table S2: only CNNM1 (376-530) and CNNM3 (375-527) gave protein; assigning the 1 uM binder to CNNM1 is inferred from listing order (Figure 4 not in text)
- Kd [4]: 1000 nM

B5: CBS-pair domain of a C. elegans CNNM protein (the one of two expressed that bound with 13 μM affinity) (domain or fragment)
chain: FKMVLGALELYDKTVAHAMTRYEDIFMLPHTLTLGAGMVTQILDMGYTRIPIYENDRKNIVALLFVKDLALLDPDDNHNVMKIASIYNHEVRRVLVDMPLRNMLEEFKRGEYHMALVERLVEQEDKDPIYELCGLITLEDIIEEIIQCEIIDE
modifications: Assigning the 13 uM binder to CNNM3 is inferred from listing order (Figure 4 not in text)
- Kd [4]: 13000 nM
